# Measured values published in publication doi:10.1101/2023.06.28.546964.
# Target: T1, PfAgo binding-pocket mutant (UniProt Q8U3D2)
# T1 sequence: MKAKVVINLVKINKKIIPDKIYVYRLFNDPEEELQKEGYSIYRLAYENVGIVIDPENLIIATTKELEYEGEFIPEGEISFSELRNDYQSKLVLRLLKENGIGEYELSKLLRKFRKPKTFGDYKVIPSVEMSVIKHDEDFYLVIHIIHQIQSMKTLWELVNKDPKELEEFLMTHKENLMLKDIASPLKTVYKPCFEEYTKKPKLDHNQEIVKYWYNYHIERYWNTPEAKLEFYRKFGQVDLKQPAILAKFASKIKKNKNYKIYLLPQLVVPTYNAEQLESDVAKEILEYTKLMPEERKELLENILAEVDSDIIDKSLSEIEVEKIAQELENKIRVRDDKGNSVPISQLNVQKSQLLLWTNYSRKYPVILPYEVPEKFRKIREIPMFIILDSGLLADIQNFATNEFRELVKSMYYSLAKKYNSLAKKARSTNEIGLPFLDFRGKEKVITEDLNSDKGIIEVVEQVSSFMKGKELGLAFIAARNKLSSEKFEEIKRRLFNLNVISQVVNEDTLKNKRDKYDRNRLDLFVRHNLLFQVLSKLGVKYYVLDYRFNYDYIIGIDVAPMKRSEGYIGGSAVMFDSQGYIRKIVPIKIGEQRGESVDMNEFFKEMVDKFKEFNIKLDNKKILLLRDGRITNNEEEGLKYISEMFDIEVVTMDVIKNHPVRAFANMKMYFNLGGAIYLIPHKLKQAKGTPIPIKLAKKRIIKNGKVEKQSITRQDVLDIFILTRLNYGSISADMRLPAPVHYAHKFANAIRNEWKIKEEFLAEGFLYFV
# Assay: fluorescence polarization
sequence,measurement,setting,value
ATATACTATACAACCTACTACCTCGTATAAATTTTTAAATAAATA [45nt DNA target],binding signal (fold affinity gain),,3
TGACGTAGTAGGTTGT [guide_m4],binding signal (fold affinity gain (up to)),5' phosphate,2
